Experimental data as given in PMC10256740.

Key:
[1] = target: FLAG-tagged BicD2-Kif1bα tail fusion (mouse) (UniProt Q60575); assay: centrosome recruitment assay with BicD2-kinesin tail fusions (relocalisation in cells, microscopy); N2A cells transfected with FLAG-BicD2-KIF tail fusion and EGFP-tagged RBP (2:3), fixed after 24 h, anti-FLAG staining; read-out log2 of the mean EGFP intensity at the centrosome over the mean intensity in the whole cell
[2] = target: FLAG-tagged BicD2-Kif1c tail fusion (mouse) (UniProt O35071); assay: as above
FLAG-tagged BicD2-Kif1c tail fusion (mouse), sequence (O35071 whole entry, the tested form may be a part): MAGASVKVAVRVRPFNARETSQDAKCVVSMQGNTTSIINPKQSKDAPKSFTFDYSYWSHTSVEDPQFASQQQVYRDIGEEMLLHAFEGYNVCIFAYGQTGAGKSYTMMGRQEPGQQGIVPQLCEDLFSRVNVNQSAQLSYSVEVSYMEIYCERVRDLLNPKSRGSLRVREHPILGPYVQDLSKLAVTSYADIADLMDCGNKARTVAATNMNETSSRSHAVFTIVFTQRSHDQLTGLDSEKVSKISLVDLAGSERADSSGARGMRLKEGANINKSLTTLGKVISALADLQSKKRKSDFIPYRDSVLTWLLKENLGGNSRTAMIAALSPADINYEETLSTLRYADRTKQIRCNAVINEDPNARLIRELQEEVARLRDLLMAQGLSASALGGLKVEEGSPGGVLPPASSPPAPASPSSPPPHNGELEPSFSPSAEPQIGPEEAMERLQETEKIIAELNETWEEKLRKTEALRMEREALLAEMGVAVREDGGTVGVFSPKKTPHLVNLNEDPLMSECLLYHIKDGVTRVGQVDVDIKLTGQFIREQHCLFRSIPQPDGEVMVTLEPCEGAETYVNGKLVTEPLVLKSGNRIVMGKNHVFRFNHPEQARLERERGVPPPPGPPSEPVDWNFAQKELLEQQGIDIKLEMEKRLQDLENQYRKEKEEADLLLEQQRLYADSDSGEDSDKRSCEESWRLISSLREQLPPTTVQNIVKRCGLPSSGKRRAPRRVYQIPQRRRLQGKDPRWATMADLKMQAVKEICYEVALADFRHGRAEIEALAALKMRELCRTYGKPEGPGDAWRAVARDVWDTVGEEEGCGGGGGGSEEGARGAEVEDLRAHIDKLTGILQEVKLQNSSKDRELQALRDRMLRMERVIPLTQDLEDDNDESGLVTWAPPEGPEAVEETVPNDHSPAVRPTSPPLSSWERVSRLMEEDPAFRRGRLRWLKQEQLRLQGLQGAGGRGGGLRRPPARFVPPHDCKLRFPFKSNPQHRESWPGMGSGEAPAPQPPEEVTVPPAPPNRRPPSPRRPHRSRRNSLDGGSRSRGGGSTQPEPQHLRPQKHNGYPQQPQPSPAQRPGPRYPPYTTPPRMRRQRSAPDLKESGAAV

FLAG-tagged BicD2-Kif1bα tail fusion (mouse), sequence (Q60575 other isoform, or with tags, fused parts or gaps): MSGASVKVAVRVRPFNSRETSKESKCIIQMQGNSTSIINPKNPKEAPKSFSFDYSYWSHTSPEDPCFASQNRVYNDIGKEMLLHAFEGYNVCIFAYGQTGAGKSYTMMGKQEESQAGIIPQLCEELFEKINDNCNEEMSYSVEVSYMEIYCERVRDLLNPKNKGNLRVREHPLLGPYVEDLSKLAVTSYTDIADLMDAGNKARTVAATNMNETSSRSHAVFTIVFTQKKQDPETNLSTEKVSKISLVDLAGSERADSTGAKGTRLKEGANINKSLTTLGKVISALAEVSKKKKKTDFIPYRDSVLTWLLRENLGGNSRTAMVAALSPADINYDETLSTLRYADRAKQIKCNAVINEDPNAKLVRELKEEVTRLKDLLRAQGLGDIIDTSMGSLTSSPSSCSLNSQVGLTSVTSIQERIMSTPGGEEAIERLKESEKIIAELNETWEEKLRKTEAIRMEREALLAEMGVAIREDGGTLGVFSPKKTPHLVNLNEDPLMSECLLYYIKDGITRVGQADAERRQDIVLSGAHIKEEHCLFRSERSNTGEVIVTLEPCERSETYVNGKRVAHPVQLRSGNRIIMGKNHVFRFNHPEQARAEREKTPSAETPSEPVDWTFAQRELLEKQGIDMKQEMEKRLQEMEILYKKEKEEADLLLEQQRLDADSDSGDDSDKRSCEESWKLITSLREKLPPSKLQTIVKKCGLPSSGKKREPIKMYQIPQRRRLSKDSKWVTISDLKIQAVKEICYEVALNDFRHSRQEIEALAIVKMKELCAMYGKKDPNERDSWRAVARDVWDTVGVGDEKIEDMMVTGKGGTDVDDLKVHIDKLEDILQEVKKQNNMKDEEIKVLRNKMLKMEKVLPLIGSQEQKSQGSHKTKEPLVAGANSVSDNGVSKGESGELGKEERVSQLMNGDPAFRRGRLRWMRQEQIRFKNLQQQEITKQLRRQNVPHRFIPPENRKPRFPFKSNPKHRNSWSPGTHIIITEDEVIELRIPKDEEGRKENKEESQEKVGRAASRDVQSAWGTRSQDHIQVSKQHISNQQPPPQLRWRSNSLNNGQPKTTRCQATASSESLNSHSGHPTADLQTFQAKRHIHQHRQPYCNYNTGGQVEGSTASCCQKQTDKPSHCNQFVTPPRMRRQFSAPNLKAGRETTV

log2 mean centrosome recruitment [1]: 1.24 log2 | log2 mean centrosome recruitment [2]: 1.13 log2
B1: EGFP-Tis11d (natural protein)
chain: MSTTLLSPFYDIDFLCKTEKSLANLNLNNMLDKKAVGTPVAAAPSSSFTPGFLRRHSASNLHALAHPVPSPGSCSPKFPGAPNGGGSSCGPAGGGGLASYGQLKEPSGGSGTALVTKESKFRDRSFSENGERSQHLLHLQQQQKGGSGSQINSTRYKTELCRPFEESGTCKYGEKCQFAHGFHELRSLTRHPKYKTELCRTFHTIGFCPYGPRCHFIHNADERRPAPSGGGGASGDLRAFGARDALHLGFAREPRPKLHHSLSFSGFPSGHHQPPGGLESPLLLDSPTSRTPPPPSSSASSCSSSASSCSSASAASTPSGAPTCCATAAAAALLYGPGGAEDLLSPGAPCASCSSSGANNAFAFGPELSSLITPLAIQTHNFAAAAAAAYYRNQQQGLTGPAPPPAQPPAAPAPPSPPFGFQLPRRLSESPVFDAPPSPPDSLSDRDSYLSGSLSSGSLSGSESPSLDPGRRLPIFSRLSISDD
